Experiments:
S-07 (S7) NK-TALEN = target: T1, S-07 (S7) NK-TALEN (synthetic, UniProt B2SU53 SEQ:41-1041); assay: cell_activity; monomer SSA assay; conditions: tags: 3xFLAG, NLS, FokI
T1 chain: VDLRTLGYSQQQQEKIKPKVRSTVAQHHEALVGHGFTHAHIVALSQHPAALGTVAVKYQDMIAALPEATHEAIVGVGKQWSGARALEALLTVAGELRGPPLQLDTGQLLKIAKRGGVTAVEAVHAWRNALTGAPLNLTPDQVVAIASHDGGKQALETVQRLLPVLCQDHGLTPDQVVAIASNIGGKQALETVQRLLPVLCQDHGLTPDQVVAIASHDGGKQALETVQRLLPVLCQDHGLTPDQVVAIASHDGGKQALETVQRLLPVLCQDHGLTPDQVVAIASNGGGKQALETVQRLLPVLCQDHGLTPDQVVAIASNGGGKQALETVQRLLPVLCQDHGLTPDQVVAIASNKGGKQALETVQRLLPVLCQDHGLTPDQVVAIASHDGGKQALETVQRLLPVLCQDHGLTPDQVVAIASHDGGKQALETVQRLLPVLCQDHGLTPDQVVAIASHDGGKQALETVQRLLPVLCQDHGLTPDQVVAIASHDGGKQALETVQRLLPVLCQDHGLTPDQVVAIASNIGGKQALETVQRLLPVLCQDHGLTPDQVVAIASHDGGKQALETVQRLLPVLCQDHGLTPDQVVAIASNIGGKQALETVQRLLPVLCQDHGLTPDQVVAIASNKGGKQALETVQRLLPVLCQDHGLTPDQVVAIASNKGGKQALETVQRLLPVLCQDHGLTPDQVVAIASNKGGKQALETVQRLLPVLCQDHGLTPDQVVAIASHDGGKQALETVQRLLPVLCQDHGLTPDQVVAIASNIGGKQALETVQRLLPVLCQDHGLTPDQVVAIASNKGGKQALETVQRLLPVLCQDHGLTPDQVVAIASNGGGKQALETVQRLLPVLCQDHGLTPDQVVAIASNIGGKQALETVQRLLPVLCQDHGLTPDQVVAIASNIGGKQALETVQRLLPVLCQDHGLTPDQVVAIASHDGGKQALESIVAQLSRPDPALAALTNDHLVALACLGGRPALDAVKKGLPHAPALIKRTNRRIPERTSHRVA
Experimental: (§1) HEK293T cells (ATCC) were cultured in Dulbecco's Modified Eagle Medium (Sigma) supplemented with 10% FBS and 2 mM L-Glutamine. Cells were seeded 80,000 per well of a 24-well plate. After 4 h, cells were transfected with 200 ng of the TALEN plasmid (or 100 ng of each TALEN for hetero-dimeric pairs) and 10 ng of the corresponding SSA reporter plasmid using calcium phosphate transfection. Three control transfections were included: 1) 200 ng of an empty TALEN backbone and 10 ng of an SSA reporter plasmid, 2) 200 ng of an empty TALEN backbone and 10 ng of a pEGFP plasmid, and 3) 100 ng of each GFP-ZFN and 10 ng of an SSA reporter plasmid. Cells were harvested 48 h after transfection. The percentages of pEGFP-transfected samples expressing GFP were determined using an Accuri C6 flow cytometer, as an indication of transfection efficiency. Genomic DNA was isolated using QuickExtract DNA extraction solution (Epicentre) as described20. Sample were PCR amplified for 35 cycles (95° C., 30 s; 60° C., 30 s; 72° C., 60 s) in a 50 μl reaction that contains 2 μl of the extracted DNA, 2.5 μl of each 10 μM target region amplification primer (SSA-Cell-F4, 5′-[…] (SEQ ID NO: 183); SSA-Cell-R4, 5′-[…] (SEQ ID NO: 184)), and 25 μl of GoTaq green master mix (Promega). PCR reactions were then separated on 2% agarose gels and the percentages of SSA-repaired products were quantified using ImageJ.

S-02 (S2) NK-TALEN = target: T2, S-02 (S2) NK-TALEN (synthetic, UniProt Q56830 SEQ:41-735); assay: cell_activity; monomer SSA assay; conditions: tags: 3xFLAG, NLS, FokI
T2 chain: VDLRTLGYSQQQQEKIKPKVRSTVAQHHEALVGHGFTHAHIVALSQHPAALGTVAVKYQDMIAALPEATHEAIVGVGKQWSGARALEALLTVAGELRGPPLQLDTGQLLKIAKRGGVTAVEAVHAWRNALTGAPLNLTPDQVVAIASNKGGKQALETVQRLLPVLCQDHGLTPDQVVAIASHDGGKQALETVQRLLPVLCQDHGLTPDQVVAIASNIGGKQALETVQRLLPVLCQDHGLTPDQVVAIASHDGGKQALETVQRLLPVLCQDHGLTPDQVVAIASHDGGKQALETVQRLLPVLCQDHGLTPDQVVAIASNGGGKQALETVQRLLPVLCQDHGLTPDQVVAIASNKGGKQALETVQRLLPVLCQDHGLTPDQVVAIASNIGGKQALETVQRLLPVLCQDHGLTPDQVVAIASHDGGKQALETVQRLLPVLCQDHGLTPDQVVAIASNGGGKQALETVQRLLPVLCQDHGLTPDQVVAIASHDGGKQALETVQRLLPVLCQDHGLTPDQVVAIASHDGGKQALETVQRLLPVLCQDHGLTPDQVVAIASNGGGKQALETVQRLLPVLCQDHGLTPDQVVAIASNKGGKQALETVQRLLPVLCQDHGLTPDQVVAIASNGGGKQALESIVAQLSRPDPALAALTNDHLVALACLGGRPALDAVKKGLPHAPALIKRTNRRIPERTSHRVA
Experimental: as §1

B1: S-07 half-site (dsDNA)
DNA 1: CACCTTGCCCCACAGGGCAGTAAC
DNA 2: GTTACTGCCCTGTGGGGCAAGGTG
activity (S-07 (S7) NK-TALEN): 7.5 % SSA

B2: S-02 half-site (dsDNA)
DNA 1: GCACCTGACTCCTGT
DNA 2: ACAGGAGTCAGGTGC
activity (S-02 (S2) NK-TALEN): 23 % SSA

Reference: patent US20150132821, “Systems and Methods for Improving Nuclease Specificity and Activity” (Georgia Tech Research Corporation, published 2015)
